To fix the notation:
B1: AMOTL2 peptide 64-79 (Angiomotin-like protein 2), 16-mer library wild type / TNKS ANK (TNKS 12 ANK repeats, residues 174-649) (parent complex)
chain 1: QVLQQATRQEPQGQEH
chain 2: TGVPAVSGALRELLEACRNGDVSRVKRLVDAANVNAKDMAGRKSSPLHFAAGFGRKDVVEHLLQMGANVHARDDGGLIPLHNACSFGHAEVVSLLLCQGADPNARDNWNYTPLHEAAIKGKIDVCIVLLQHGADPNIRNTDGKSALDLADPSAKAVLTGEYKKDELLEAARSGNEEKLMALLTPLNVNCHASDGRKSTPLHLAAGYNRVRIVQLLLQHGADVHAKDKGGLVPLHNACSYGHYEVTELLLKHGACVNAMDLWQFTPLHEAASKNRVEVCSLLLSHGADPTLVNCHGKSAVDMAPTPELRERLTYEFKGHSLLQAAREADLAKVKKTLALEIINFKQPQSHETALHCAVASLHPKRKQVTELLLRKGANVNEKNKDFMTPLHVAAERAHNDVMEVLHKHGAKMNALDTLGQTALHRAALAGHLQTCRLLLSYGSDPSIISLQGFTAAQMGNEAVQQILSESTPIRTSD
B2: RNF115 peptide 69-84 (E3 ubiquitin-protein ligase RNF115), 16-mer library wild type / MDM2 SWIB (MDM2 SWIB/MDM2 domain, residues 17-125) (parent complex)
chain 1: THFAELWGHLDHTMFF
chain 2: SQIPASEQETLVRPKPLLLKLLKSVGAQKDTYTMKEVLFYLGQYIMTKRLYDEKQQHIVYCSNDLLGDLFGVPSFSVKEHRKIYTMIYRNLVVVNQQESSDSGTSVSEN

The first assay covers variants of B1. Briefly: proteomic peptide phage display deep mutational scan (ProP-PD DMS): M13 P8 16-mer library selected against immobilised GST-tagged bait for four days (rounds), NGS of the eluted pools per day and pseudo-replica; bait immobilised on MaxiSorp plates (10 µg), library pre-cleared on GST, 2 h binding at 4 °C, five washes; one round per day, days 1-4; value from days 2 and 3.
As for chain 1 QVLQQQTRQEPQGQEH [chain 1 A6Q], the screen value is 0.00606 average fractional NGS count over selection days 2 and 3 (reads of this peptide / all reads for the bait, averaged over ….

Regarding chain 1 QVLQQNTRQEPQGQEH [chain 1 A6N], the screen value is 0.000341 average fractional NGS count over selection days 2 and 3 (reads of this peptide / all reads for the bait, averaged over ….

Take chain 1 QVLQQTTRQEPQGQEH [chain 1 A6T]: the screen value was 0.000175 average fractional NGS count over selection days 2 and 3 (reads of this peptide / all reads for the bait, averaged over ….

Turning to chain 1 QVLQQLTRQEPQGQEH [chain 1 A6L], the screen value is 0.000992 average fractional NGS count over selection days 2 and 3 (reads of this peptide / all reads for the bait, averaged over ….

As for chain 1 QVLQQATRQEPQGQEY [chain 1 H16Y], the screen value is 0.00033 average fractional NGS count over selection days 2 and 3 (reads of this peptide / all reads for the bait, averaged over ….

In the case of chain 1 QVLQQATRQEPQGQEI [chain 1 H16I], the screen value was 0.000704 average fractional NGS count over selection days 2 and 3 (reads of this peptide / all reads for the bait, averaged over ….

For the variant chain 1 QVLQQATRQEPQGQEA [chain 1 H16A], the screen value is 0.00111 average fractional NGS count over selection days 2 and 3 (reads of this peptide / all reads for the bait, averaged over ….

For the variant chain 1 QVLQQATRQEPQGQER [chain 1 H16R], the screen value was 0.00349 average fractional NGS count over selection days 2 and 3 (reads of this peptide / all reads for the bait, averaged over ….

Consider chain 1 QVLQQATRQEPQGQEM [chain 1 H16M], for which the screen value was 0.0005 average fractional NGS count over selection days 2 and 3 (reads of this peptide / all reads for the bait, averaged over ….

For chain 1 QVLQQATRQEPQGQEQ [chain 1 H16Q], the screen value was 0.000195 average fractional NGS count over selection days 2 and 3 (reads of this peptide / all reads for the bait, averaged over ….

For the variant chain 1 QVLQQATRQEPQGQEN [chain 1 H16N], the screen value was 0.00139 average fractional NGS count over selection days 2 and 3 (reads of this peptide / all reads for the bait, averaged over ….

As for chain 1 QVLQQATRQKPQGQEH [chain 1 E10K], the screen value was 0.000435 average fractional NGS count over selection days 2 and 3 (reads of this peptide / all reads for the bait, averaged over ….

chain 1 QVLQQATRQLPQGQEH [chain 1 E10L]: the screen value is 0.000172 average fractional NGS count over selection days 2 and 3 (reads of this peptide / all reads for the bait, averaged over ….

For the variant chain 1 QVLQQATRQYPQGQEH [chain 1 E10Y], the screen value was 0.00125 average fractional NGS count over selection days 2 and 3 (reads of this peptide / all reads for the bait, averaged over ….

In the case of chain 1 QVLQQATRQIPQGQEH [chain 1 E10I], the screen value is 0.000303 average fractional NGS count over selection days 2 and 3 (reads of this peptide / all reads for the bait, averaged over ….

As for chain 1 QVLQQATRQSPQGQEH [chain 1 E10S], the screen value was 0.000835 average fractional NGS count over selection days 2 and 3 (reads of this peptide / all reads for the bait, averaged over ….

On to chain 1 QVLQQATRQPPQGQEH [chain 1 E10P], for which the screen value is 0.00208 average fractional NGS count over selection days 2 and 3 (reads of this peptide / all reads for the bait, averaged over ….

With chain 1 QVLQQATRQTPQGQEH [chain 1 E10T], the screen value was 0.00297 average fractional NGS count over selection days 2 and 3 (reads of this peptide / all reads for the bait, averaged over ….

As for chain 1 QVLQQATRQNPQGQEH [chain 1 E10N], the screen value is 0.000822 average fractional NGS count over selection days 2 and 3 (reads of this peptide / all reads for the bait, averaged over ….

For the variant chain 1 QVLQQATRQQPQGQEH [chain 1 E10Q], the screen value was 0.000624 average fractional NGS count over selection days 2 and 3 (reads of this peptide / all reads for the bait, averaged over ….

Take chain 1 QVLQQATRQGPQGQEH [chain 1 E10G]: the screen value is 0.00177 average fractional NGS count over selection days 2 and 3 (reads of this peptide / all reads for the bait, averaged over ….

chain 1 QVLQQATRQEPHGQEH [chain 1 Q12H]: the screen value is 0.000111 average fractional NGS count over selection days 2 and 3 (reads of this peptide / all reads for the bait, averaged over ….

In the case of chain 1 QVLQQATRQEPFGQEH [chain 1 Q12F], the screen value is 0.00125 average fractional NGS count over selection days 2 and 3 (reads of this peptide / all reads for the bait, averaged over ….

Regarding chain 1 QVLQQATRQEPAGQEH [chain 1 Q12A], the screen value was 0.00119 average fractional NGS count over selection days 2 and 3 (reads of this peptide / all reads for the bait, averaged over ….

Consider chain 1 QVLQQATRQEPWGQEH [chain 1 Q12W], for which the screen value was 0.000556 average fractional NGS count over selection days 2 and 3 (reads of this peptide / all reads for the bait, averaged over ….

chain 1 QVLQQATRQEPPGQEH [chain 1 Q12P]: the screen value was 0.000174 average fractional NGS count over selection days 2 and 3 (reads of this peptide / all reads for the bait, averaged over ….

As to chain 1 QVLQQATRQEPQGQHH [chain 1 E15H], the screen value was 0.000392 average fractional NGS count over selection days 2 and 3 (reads of this peptide / all reads for the bait, averaged over ….

With chain 1 QVLQQATRQEPQGQDH [chain 1 E15D], the screen value was 0.000568 average fractional NGS count over selection days 2 and 3 (reads of this peptide / all reads for the bait, averaged over ….

As to chain 1 QVLQQATRQEPQGQPH [chain 1 E15P], the screen value is 0.000133 average fractional NGS count over selection days 2 and 3 (reads of this peptide / all reads for the bait, averaged over ….

For chain 1 QVLQQATRQEPQGQIH [chain 1 E15I], the screen value is 9.73e-05 average fractional NGS count over selection days 2 and 3 (reads of this peptide / all reads for the bait, averaged over ….

In the case of chain 1 QVLQQATRQEPQGQWH [chain 1 E15W], the screen value is 0.00103 average fractional NGS count over selection days 2 and 3 (reads of this peptide / all reads for the bait, averaged over ….

Take chain 1 QVLQQATRQEVQGQEH [chain 1 P11V]: the screen value is 0.000173 average fractional NGS count over selection days 2 and 3 (reads of this peptide / all reads for the bait, averaged over ….

For the variant chain 1 QVLQQATRQETQGQEH [chain 1 P11T], the screen value was 0.00762 average fractional NGS count over selection days 2 and 3 (reads of this peptide / all reads for the bait, averaged over ….

On to chain 1 QVLQQATRQEAQGQEH [chain 1 P11A], for which the screen value is 0.000173 average fractional NGS count over selection days 2 and 3 (reads of this peptide / all reads for the bait, averaged over ….

Variants of B2 are the subject of another assay. The description is as above.
Consider chain 1 T13Q, for which the screen value was 0.000442 average fractional NGS count over selection days 2 and 3 (reads of this peptide / all reads for the bait, averaged over ….

As to chain 1 T13G, the screen value was 0.00624 average fractional NGS count over selection days 2 and 3 (reads of this peptide / all reads for the bait, averaged over ….

Consider chain 1 T13P, for which the screen value was 0.000265 average fractional NGS count over selection days 2 and 3 (reads of this peptide / all reads for the bait, averaged over ….

With chain 1 T13W, the screen value is 0.000505 average fractional NGS count over selection days 2 and 3 (reads of this peptide / all reads for the bait, averaged over ….

On to chain 1 H9A, for which the screen value is 0.00146 average fractional NGS count over selection days 2 and 3 (reads of this peptide / all reads for the bait, averaged over ….

Take chain 1 L6V: the screen value is 0.000773 average fractional NGS count over selection days 2 and 3 (reads of this peptide / all reads for the bait, averaged over ….

Consider chain 1 L6M, for which the screen value was 0.000951 average fractional NGS count over selection days 2 and 3 (reads of this peptide / all reads for the bait, averaged over ….

For chain 1 H2I, the screen value is 0.000473 average fractional NGS count over selection days 2 and 3 (reads of this peptide / all reads for the bait, averaged over ….

As for chain 1 H2Q, the screen value was 0.00104 average fractional NGS count over selection days 2 and 3 (reads of this peptide / all reads for the bait, averaged over ….

Take chain 1 H2E: the screen value is 0.000801 average fractional NGS count over selection days 2 and 3 (reads of this peptide / all reads for the bait, averaged over ….

Take chain 1 H2G: the screen value was 0.0014 average fractional NGS count over selection days 2 and 3 (reads of this peptide / all reads for the bait, averaged over ….

Regarding chain 1 H12V, the screen value is 0.000717 average fractional NGS count over selection days 2 and 3 (reads of this peptide / all reads for the bait, averaged over ….

As for chain 1 H12S, the screen value was 0.00289 average fractional NGS count over selection days 2 and 3 (reads of this peptide / all reads for the bait, averaged over ….

Regarding chain 1 H12N, the screen value was 0.00222 average fractional NGS count over selection days 2 and 3 (reads of this peptide / all reads for the bait, averaged over ….

Consider chain 1 H12L, for which the screen value was 0.000337 average fractional NGS count over selection days 2 and 3 (reads of this peptide / all reads for the bait, averaged over ….

Consider chain 1 E5S, for which the screen value is 0.00184 average fractional NGS count over selection days 2 and 3 (reads of this peptide / all reads for the bait, averaged over ….

Regarding chain 1 A4P, the screen value is 0.000473 average fractional NGS count over selection days 2 and 3 (reads of this peptide / all reads for the bait, averaged over ….

chain 1 T1H: the screen value was 0.00126 average fractional NGS count over selection days 2 and 3 (reads of this peptide / all reads for the bait, averaged over ….

With chain 1 T1F, the screen value was 0.000233 average fractional NGS count over selection days 2 and 3 (reads of this peptide / all reads for the bait, averaged over ….

Turning to chain 1 F15R, the screen value is 0.00042 average fractional NGS count over selection days 2 and 3 (reads of this peptide / all reads for the bait, averaged over ….

For chain 1 F15S, the screen value is 0.0126 average fractional NGS count over selection days 2 and 3 (reads of this peptide / all reads for the bait, averaged over ….

For chain 1 F15H, the screen value was 0.000286 average fractional NGS count over selection days 2 and 3 (reads of this peptide / all reads for the bait, averaged over ….

Consider chain 1 F15M, for which the screen value was 0.0114 average fractional NGS count over selection days 2 and 3 (reads of this peptide / all reads for the bait, averaged over ….

chain 1 L10M: the screen value is 0.00099 average fractional NGS count over selection days 2 and 3 (reads of this peptide / all reads for the bait, averaged over ….

On to chain 1 M14E, for which the screen value is 0.000177 average fractional NGS count over selection days 2 and 3 (reads of this peptide / all reads for the bait, averaged over ….

(Values after paper PMC12102759 (2025).)
